The experiment addresses CD11b on cells in whole blood (species not stated) (Homo sapiens (Human)) (UniProt P11215). The experiment can be described thus: adhesion of antibody-bearing backpacks to cells in whole blood.

Regarding “CD11b antibody (M1/70 clone, Biolegend Purified anti-mouse/human CD11b Antibody Cat #101201/101202), on polymeric particles (backpacks)”, the % of CD14+ monocytes with adhered backpacks worked out at 95%.

The values are drawn from US20240382628A1.
